The values that follow come from patent US20090281028A1.

Where two headings read alike, the source gives them in different places. Ends that are not written are not given here.

What all share (experiment): cell-based or functional assay
Test [1] concerns the target human Kv1.3 voltage-gated potassium channel (human) (UniProt P22001).
The target in test [2] is human Kv1.3 channel (human) (UniProt P22001).
Test [3] deals with human Kv1.1 channel (human) (UniProt Q09470).
The target of test [4] is human Kv1.1 voltage-gated potassium channel (human) (UniProt Q09470).
Test [5] deals with human Kv1.3 channel (human) (UniProt P22001). The source holds these as a separate data set.

Chain of human Kv1.3 channel (human) (P22001 whole entry): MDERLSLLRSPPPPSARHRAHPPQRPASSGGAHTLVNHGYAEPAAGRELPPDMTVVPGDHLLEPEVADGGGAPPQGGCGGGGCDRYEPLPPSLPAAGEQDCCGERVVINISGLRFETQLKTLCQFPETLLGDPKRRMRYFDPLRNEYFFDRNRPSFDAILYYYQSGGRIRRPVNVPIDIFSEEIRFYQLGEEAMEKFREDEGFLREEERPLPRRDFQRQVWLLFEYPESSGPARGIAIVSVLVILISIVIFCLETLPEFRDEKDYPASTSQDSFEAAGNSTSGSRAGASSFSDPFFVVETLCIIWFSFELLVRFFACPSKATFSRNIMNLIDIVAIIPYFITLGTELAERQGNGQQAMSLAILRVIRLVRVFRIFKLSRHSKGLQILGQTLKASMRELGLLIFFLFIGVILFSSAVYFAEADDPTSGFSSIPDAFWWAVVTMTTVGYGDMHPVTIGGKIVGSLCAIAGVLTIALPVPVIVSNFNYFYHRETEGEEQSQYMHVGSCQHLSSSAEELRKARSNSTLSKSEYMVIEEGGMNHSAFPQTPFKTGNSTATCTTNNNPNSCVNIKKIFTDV
Chain of human Kv1.3 voltage-gated potassium channel (human) (P22001 whole entry): as above
Chain of human Kv1.1 channel (human) (Q09470 whole entry): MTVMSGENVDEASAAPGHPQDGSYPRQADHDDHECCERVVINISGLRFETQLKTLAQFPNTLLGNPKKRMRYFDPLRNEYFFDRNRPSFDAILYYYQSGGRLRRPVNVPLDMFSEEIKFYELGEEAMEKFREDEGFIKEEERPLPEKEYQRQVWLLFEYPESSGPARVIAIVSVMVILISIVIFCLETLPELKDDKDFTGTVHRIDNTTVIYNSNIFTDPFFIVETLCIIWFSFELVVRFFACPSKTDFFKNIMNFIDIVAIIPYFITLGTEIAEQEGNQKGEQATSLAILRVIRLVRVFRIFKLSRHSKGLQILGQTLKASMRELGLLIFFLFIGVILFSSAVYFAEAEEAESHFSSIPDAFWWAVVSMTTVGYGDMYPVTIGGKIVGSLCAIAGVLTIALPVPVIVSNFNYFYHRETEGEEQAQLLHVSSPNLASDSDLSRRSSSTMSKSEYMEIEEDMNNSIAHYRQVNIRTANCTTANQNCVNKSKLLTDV
Chain of human Kv1.1 voltage-gated potassium channel (human) (Q09470 whole entry): as above

Take 20k PEG-OSK1[Ala29, 1Nal34] (peptide): in test [1], the WB/IFNg (IC50, nM); human whole blood is 0.081 nM and the WB/IL-2 (IC50, nM); human whole blood came out at 0.049 nM.

Turning to 20k PEG-ShK (peptide), in test [1], the WB/IFNg (IC50, nM); human whole blood was 0.065 nM and the WB/IL-2 (IC50, nM); human whole blood was found to be 0.046 nM. As to E. coli-derived Fc-L-OSK1 (Fc fusion), the Kv1.3 IC50 by WCVC (nM), whole cell patch clamp, HEK293/Kv1.3 cells in test [2] turned out to be 3.2 nM.

In test [2], “E. coli-derived Fc-L-ShK[1-35] (Fc fusion)” registered a Kv1.3 IC50 by WCVC (nM), whole cell patch clamp, HEK293/Kv1.3 cells of 1.4 nM.

In test [2], “E. coli-derived Fc-L-ShK[2-35] (Fc fusion)” yielded a Kv1.3 IC50 by IWQ (nM), IonWorks planar patch clamp, CHO/Kv1.3 cells of 2.8 nM and a Kv1.3 IC50 by WCVC (nM), whole cell patch clamp, HEK293/Kv1.3 cells of 1.3 nM. “E. coli-derived ShK[2-35]-L-Fc (Fc fusion)”: the Kv1.3 IC50 by IWQ (nM), IonWorks planar patch clamp, CHO/Kv1.3 cells in test [2] was found to be 4.9 nM. Still for that read-out and setting: the figure for “E. coli-derived Shk[1-35]-L-Fc (Fc fusion)” is 2.4 nM. Take “Fc-L5-ShK[2-35] (CHO-derived, bivalent dimeric) (Fc fusion)”: the IC50 of block of the outward potassium current, whole cell patch clamp in test [2] was 0.1 nM. Fc-L10-OSK1 (Fc fusion) registered a hKv1.1: IC50 [pM], block of current, whole cell patch clamp in test [3] of 41600 pM.

Turning to “Fc-L10-OSK1 (stably expressed in CHO cells) (Fc fusion)”, in test [2], the fold loss of potency (IC50 of Kv1.3 current block) against synthetic OSK1 is 5 fold.

“Fc-L10-ShK[2-35] (CHO-derived, bivalent dimeric) (Fc fusion)” registered an IC50 of block of the outward potassium current, whole cell patch clamp in test [2] of 0.115 nM.

“Fc-L25-ShK[2-35] (CHO-derived, bivalent dimeric) (Fc fusion)” registered an IC50 of inhibition of human Kv1.3, whole cell patch clamp in test [2] of 0.15 nM. Turning to GGGGS-Osk1 (peptide), in test [1], the WB/IFNg (IC50, nM); human whole blood is 2.2 nM and the WB/IL-2 (IC50, nM); human whole blood is 1.36 nM.

In turn, “OSK1 (wild-type), toxin peptide of Orthochirus scrobiculosus scorpion venom” gave a Kv1.1 (IC50, pM); whole cell patch clamp ePhys in test [4] of 202 pM. Moreover, in test [1], the Kv1.3 (IC50, pM); whole cell patch clamp ePhys stood at 39 pM and the Kv1.3 Selectivity (=Kv1.1/Kv.3 IC50) amounted to 5 fold. In test [1], OSK1-K16, D20 (peptide) yielded a WB/IFNg (IC50, nM); human whole blood of 1.32 nM and a WB/IL-2 (IC50, nM); human whole blood of 1.58 nM. As to “PEG-OSK1 (N-terminally 20 kDa PEGylated synthetic OSK1) (peptide)”, the peak IC50 of block of the outward potassium current, whole cell patch clamp in test [2] was found to be 1.28 nM. The molecule Synthetic OSK1 (peptide) showed a hKv1.1: IC50 [pM], block of current, whole cell patch clamp in test [3] of 160 pM. In test [2], the hKv1.3: IC50 [pM], block of current, whole cell patch clamp worked out at 39 pM and the selectivity ratio hKv1.1/hKv1.3 (IC50) was found to be 4 fold. In turn, SCIDTIPKSRCTAFQCKHSMKYRLSFCRKTCGTC (not fully specified; ends and bridges not checked) [synthetic ShK[2-35]] came in with an IC50 of block of the outward potassium current, whole cell patch clamp in test [5] of 0.049 nM. In test [5], RSCIDTIPKSRCTAFQCKHSMKYRLSFCRKTCGTC (not fully specified; ends and bridges not checked) [20K PEG-ShK[1-35]] displayed a peak IC50 of block of the outward potassium current, whole cell patch clamp of 0.169 nM.
